B1: C9orf9 (parent)
chain: LTKASLKPRGCSKPPWRPPGGKL

Variants of: B1
Test: protein stability index of a GFP-peptide fusion (GPS, HEK-293T) (PSI 1-6); higher = more stable
Settings: c terminus: native
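Further: lentivirally expressed fusions sorted by FACS into six bins by GFP to DsRed ratio, PSI derived from sequencing read proportions per bin multiplied by bin number.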

Protein stability index of substitutions, site by site:
G21: R 1.75; K 4.05; Y 2.35; V 3.39; W 2.02; P 2.03; A 1.86
W16: F 2.03; G 2.29; I 1.87; E 2.19; Y 2.25; V 3.43
P14: A 1.54; L 2.24; V 2.36; S 1.38; W 1.94
L23: C 1.68; Y 2.13; N 1.92; W 1.03; Q 2.91; F 1.24; R 3.08; H 2.48; P 3.08; M 2.1
G20: V 3.83; C 2.91; R 2.18; S 2.76; K 3.36; M 2.13; F 3.03; D 4.64; Y 2.56; I 2.42; H 3.77; N 2.27
K22: Y 3.71; C 3.7; G 2.1; S 2.67; Q 3.53; N 3.08; V 4.26; F 2.03; M 2.73
P18: K 2.85; L 1.32; M 3.68; W 2.9; N 2.93; I 2.18; R 2.46; Y 2.86; H 3.78; Q 2.26
C11: N 1.58; G 2.13; P 1.65; Y 1.27; Q 1.54; H 3.08; V 2.1; W 2.1; I 2.1; S 2; M 1.71; D 1.76; L 2.39
S12: N 2.05; E 2.02; F 1.3; R 1.34; T 3.8; V 2.52; C 1.49; I 2.3; A 2.42; L 1.66; G 1.99; M 5.53; W 3.5; H 1.53; P 1.48
P19: C 2.91; D 4.43; N 4.1; L 3.21; V 1.78; F 1.69; T 3.72; R 2.6; E 4.05; H 2.23; Y 1.22; S 3.87; I 1.24; G 3.44; M 3.15
G10: A 2.74; K 2.43; D 2.36; Q 1.88; R 3.37; Y 2.25; I 2.47; E 2.18; L 2.96; C 1.97; W 2.02; N 2.06; P 2.24; V 2.19; T 2.5; S 2.7; M 2.19; F 1.91; H 2.29
P15: H 2.18; T 3.08; R 2.34; W 1.16; I 2.36; N 1.77; Y 2.73; G 2.02; L 3.21; Q 2.77; D 3.75; V 2.02; E 3.93; M 1.78
R17: V 3.35; W 3.47; S 4.71; M 3.49; P 2.71; Q 4.16; L 3.69; D 3.87; K 3.26; F 3.37; A 3.53; N 4.2
K13: S 2.62; G 2.78; I 2.1; D 3.65; C 2.9; R 1.49; Q 2.3; E 3.46; M 2.87
